Measured values published in PMC5912696.

Biological target: Q394X truncation of the ER-tethered Ste6 NBD2 chimera (yeast)
Experiment: co-IP

- fold above background: 2 fold
Substance: Hsp104 (from UniProt P31539 1-908) (natural protein)
